Results reported in patent US20220380459A1 (DRAGONFLY THERAPEUTICS, published 2022).
Where a chain is given by its changes, count along the chain named.

B1: ADI-11776 IgG (antibody, V domains shown)
VH: EVQLLESGGGLVQPGGSLRLSCAASGFTFSKYTMSWVRQAPGKGLEWVSAIVGSGESTYFADSVKGRFTISRDNSKNTLYLQMNSLRAEDTAVYYCAREGGPYYDSSGYFVYYGMDVWGQGTTVTVSS
VL: DIQMTQSPSTLSASVGDRVTITCRASQSISSWLAWYQQKPGKAPKLLIYKASSLESGVPSRFSGSGSGTEFTLTISSLQPDDFATYYCQQYDDLPTFGGGTKVEIK
notes: IgG; also called Ab3; H76
B2: ADI-10161 IgG (antibody, V domains shown)
VH: EVQLVESGGGLVQPGGSLRLSCAASGFTFSSYWMSWVRQAPGKGLEWVANINQDGSEKYYVDSVKGRFTISRDNAKNSLYLQMNSLRAEDTAVYYCAREGGDSWYHAFDIWGQGTMVTVSS
VL: DIQMTQSPSSVSASVGDRVTITCRASQGISSWLAWYQQKPGKAPKLLIYAASNLQSGVPSRFSGSGSGTDFTLTISSLQPEDFATYYCQQKLSLPLTFGGGTKVEIK
notes: IgG; also called Ab16
B3: ADI-10163 IgG (antibody, V domains shown)
VH: QVQLQESGPGLVKPSQTLSLTCTVSGGSISSGGYYWSWIRQHPGKGLEWIGSIYYSGSTYYNPSLKSRVTISVDTSKNQFSLKLSSVTAADTAVYYCARDRLDYSYNYGMDVWGQGTTVTVSS
VL: B2 VL with V11L, G28S, W32Y, A34N, A50G, N53S, K91V, L92Y, L94A, L96F
notes: IgG; also called Ab17
B4: ADI-10164 IgG (antibody, V domains shown)
VH: QVQLQESGPGLVKPSETLSLTCAVSGYSISSGYYWGWIRQPPGKGLEWIGSIYHSGSTNYNPSLKSRVTISVDTSKNQFSLKLSSVTAADTAVYYCARLPPWFGFSYFDLWGRGTLVTVSS
VL: EIVLTQSPATLSLSPGERATLSCRASQSVSSYLAWYQQKPGQAPRLLIYDASNRATGIPARFSGSGSGTDFTLTISSLEPEDFAVYYCQQVDNYPPTFGGGTKVEIK
notes: IgG; also called Ab18
B5: ADI-11801 IgG (antibody, V domains shown)
VH: QVQLVQSGAEVKKPGASVKVSCKASGYTFSDYYMHWVRQAPGQGLEWMGMINPSWGSTSYAQKFQGRVTMTRDTSTSTVYMELSSLRSEDTAVYYCAREAADGFVGERYFDLWGRGTLVTVSS
VL: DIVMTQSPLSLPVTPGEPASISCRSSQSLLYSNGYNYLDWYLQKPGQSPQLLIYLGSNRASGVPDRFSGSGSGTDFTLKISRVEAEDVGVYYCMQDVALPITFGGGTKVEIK
notes: IgG; also called Ab4
B6: ADI-11802 IgG (antibody, V domains shown)
VH: B5 VH with D31G, S54Y, W55G, S59R
VL: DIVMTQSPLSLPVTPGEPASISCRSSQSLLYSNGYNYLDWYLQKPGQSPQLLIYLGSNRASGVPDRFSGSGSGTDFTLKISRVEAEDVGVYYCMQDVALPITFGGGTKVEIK
notes: IgG; also called Ab23
B7: ADI-10173 IgG (antibody, V domains shown)
VH: B5 VH with S30T, D31S, M50I, W55G, S59T
VL: not shown
notes: IgG; also called Ab22
B8: ADI-10177 IgG (antibody, V domains shown)
VH: EVQLVESGGGLVQPGGSLRLSCAASGFTFSSYWMSWVRQAPGKGLEWVANIKQDGSEKYYVDSVKGRFTISRDNAKNSLYLQMNSLRAEDTAVYYCARPLNAGELDVWGQGTMVTVSS
VL: DIQMTQSPSTLSASVGDRVTITCRASQSISSWLAWYQQKPGKAPKLLIYEASSLESGVPSRFSGSGSGTEFTLTISSLQPDDFATYYCQQLESYPLTFGGGTKVEIK
notes: IgG; also called Ab2
B9: ADI-11807 IgG (antibody, V domains shown)
VH: B8 VH with S30G, N50T, Y59S
VL: DIQMTQSPSTLSASVGDRVTITCRASQSISSWLAWYQQKPGKAPKLLIYEASSLESGVPSRFSGSGSGTEFTLTISSLQPDDFATYYCQQSQSYPPITFGGGTKVEIK
notes: IgG; also called Ab5; I07
B10: ADI-11809 IgG (antibody, V domains shown)
VH: B8 VH with S30P, N50T, Q53R, Y59G
VL: B9 VL
notes: IgG; also called Ab6

Biological target: T1, human CD33 extracellular domain (human, UniProt P20138 18-259)
T1 construct: soluble monomeric ECD; also called human CD33 ECD; hCD33
Experiment: BLI Octet, IgG loaded;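 further: IgGs captured on AHC biosensors, exposed to 100 nM antigen for 3 min association then 3 min dissociation in buffer, kinetics fitted with a 1:1 binding model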
Experimental: Briefly, ForteBio affinity measurements were performed by loading IgGs on-line onto AHC sensors. Sensors were equilibrated off-line in assay buffer for 30 min and then monitored on-line for 60 seconds for baseline establishment. Sensors with loaded IgGs were exposed to 100 nM antigen for 3 minutes, and afterwards were transferred to assay buffer for 3 min for off-rate measurement. All kinetics were analyzed using the 1:1 binding model.

Binder	Kd [nM]	koff [s⁻¹]	kon [M⁻¹ s⁻¹]
B1	0.294	0.0002	679000
B2	3.7	0.00217	587000
B3	6.8		
B4	4.3	0.00148	344000
B5	0.457	0.0002	438000
B6	0.453	0.0002	441000
B7	9.7		
B8	3.6	0.00214	601000
B9	0.307	0.0002	651000
B10	0.313	0.0002	638000
